Experiments:
[1] = target: Fluorescently labelled MukB (MukB-Cy5) (E. coli) (UniProt P22523); assay: single-molecule TIRF fluorescence intensity counting; MukB-Cy5 on 'bulbs' of doubly tethered λDNA; 10 nM MukB incubated with DNA at 50 mM NaCl until compacted, then 10 nM MukF, 20 nM MukE and 1 mM ATP-Mg2+ flowed in; number from the intensity against that of a single MukB bound to glass; 107 DNAs
[2] = target: MukB^EQ-Cy5 (EQ MukB mutant, binds but cannot hydrolyse ATP) (E. coli) (UniProt P22523); assay: single-molecule TIRF fluorescence intensity counting; MukB^EQ-Cy5 with MukE, truncated monomeric MukF (MonoMukF) and ATP-Mg2+ on doubly tethered λDNA, 150 mM NaCl buffer, ~1 pN of applied force; 164 clusters

Row | stoichiometry N [1] | stoichiometry N [2] | Substance
1 | 2 to 4 | – | Fluorescently labelled MukB (MukB-Cy5) (from UniProt P22523 1-1486) (natural protein)
2 | – | 2 | MukB^EQ-Cy5 (EQ MukB mutant, binds but cannot hydrolyse ATP) (from UniProt P22523 1-1486) (natural protein)
